Biological target: SSPG1d peptide (…) (Sclerotinia sclerotiorum)
Assay: phage ELISA during panning of the phage display scFv library

B1: scFv-SSPG1d-peptide (scFv)
scFv: MDIVLTQSPAIMSASPGEKVTMTCSASSSVSYMHWYQQKSSTSPKLWIYDTSKLASGVPGRFSGSGSGNSYSLTISSMEAEDVATYYCFQGSGYPLTFGAGTKLEIKRGAGGSGGGGSGGGGSGGGGSQVQLQQSGAELVRPGSSVKISCKASGYAFSNYWMNWVKQRPGQGLEWIGQIYPGYGDAKYNGKFKGKATLTADISSSTAYMQLSSLTSEDSAVYFCARSSYEANWGQGTLVTVSA
- absorbance at 450 nm above background (absorbance (450 nm)): 0.871
